Test results from the supplement of paper PMC10126150.
± gives the standard deviation of the averaged measurements.

Tested on: ATP
Assay: switch fluorescence ratio, 500 uM ATP over buffer (Cy3 cluster intensity, sum of 5 cycles each) (fold (ratio)); higher = stronger signal-on switching upon ATP binding; sequences stand for … in TCGTCGGCAGCGTCAGATGTGTATAAGAGACAGTTTTTTTTTTTTTTTTTTTTTTTTT…TC
Conditions: aptamer strand: ATP DNA aptamer (quencher-CACCTGGGGGAGTATTGCGGAGGAAGG + anchor), 100 nM annealed; ATP concentration: 500 uM
Summary of the method: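 Per cluster, summed Cy3 intensity from the target cycles was divided by that from the buffer cycles to give the fluorescence ratio, then averaged per switch-domain sequence. Clusters outside 100-1000 RFU were excluded. The Cy3-labelled switching-strand clusters, on a modified Illumina MiSeq flow-cell, were annealed to 100 nM quencher-labelled ATP aptamer and imaged in selection buffer, then after 15 min with 500 uM ATP at 22 °C, for five cycles with NaOH stripping and re-annealing between them.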
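Note: ATP exposure 15 min at 22 °C before imaging.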

GGTAATTGAA was tested, and the switch fluorescence ratio was 0.9878 ± 0.0076.

TAATTGGAGA showed a switch fluorescence ratio of 0.989 ± 0.014.

Work on TGGTGGGCGA yielded a switch fluorescence ratio of 1.04 ± 0.058.

Work on TAGATTGAAA yielded a switch fluorescence ratio of 0.986 ± 0.028.

Sequence GACGCTGTGC has a switch fluorescence ratio of 3.6 ± 0.41.

With TTGGTTTGAG the switch fluorescence ratio was 1.016 ± 0.0031.

Sequence TGGGGGGGCG has a switch fluorescence ratio of 0.998 ± 0.04.

Sequence ACGCTGCCGG has a switch fluorescence ratio of 1.1 ± 0.057.

For AAAGCTCACC, the switch fluorescence ratio was 1.12 ± 0.026.

CGAGTAGTCA gave a switch fluorescence ratio of 0.994 ± 0.018.

In the case of GGGTCCATGG, the switch fluorescence ratio is reported as 0.985 ± 0.024.

AGCTTGTTCG was tested, and the switch fluorescence ratio was 0.987 ± 0.023.

GTAGAAATGT gave a switch fluorescence ratio of 0.981 ± 0.027.

Work on AGAAATGACG yielded a switch fluorescence ratio of 1 ± 0.037.

Work on CGTGGTCAAC yielded a switch fluorescence ratio of 0.968 ± 0.047.

GTAGTGCGGG gave a switch fluorescence ratio of 0.9536 ± 0.0014.

With GAGACTGGTT the switch fluorescence ratio was 1.03 ± 0.034.

TTTTGGATTT gave a switch fluorescence ratio of 0.993 ± 0.018.

Work on CAGTCTGCTC yielded a switch fluorescence ratio of 1.05 ± 0.03.

ATAATATTTT gave a switch fluorescence ratio of 1.031 ± 0.0028.

For GGGAATGGAA, the switch fluorescence ratio was 0.995 ± 0.014.

With TTCAGTGTTA the switch fluorescence ratio was 1.017 ± 0.0058.

Sequence AAAGAAATTG has a switch fluorescence ratio of 1.01 ± 0.035.

For TGACCAGGCA, the switch fluorescence ratio was 1.05 ± 0.056.

CATTTATGGG was tested, and the switch fluorescence ratio was 1.015 ± 0.0031.

For TTGGGGCAGC, the switch fluorescence ratio was 0.995 ± 0.013.

In the case of GGAGTATTTT, the switch fluorescence ratio is reported as 1.12 ± 0.29.

With AGCGCGTCGC the switch fluorescence ratio was 0.955 ± 0.016.

With TAGGCGGGGA the switch fluorescence ratio was 1.07 ± 0.059.

GGCTTGAGGG gave a switch fluorescence ratio of 0.942 ± 0.033.

For GTAAAAGGCG, the switch fluorescence ratio was 1 ± 0.024.

AAGTACTTGA gave a switch fluorescence ratio of 1.12 ± 0.052.

TCATGGGGGT was tested, and the switch fluorescence ratio was 0.995 ± 0.028.

TGTTTAACAG showed a switch fluorescence ratio of 1.03 ± 0.05.

Work on CAACCCGGTA yielded a switch fluorescence ratio of 1.51 ± 0.7.

CATTGAAGTG gave a switch fluorescence ratio of 0.986 ± 0.053.

For AATTGGGATG, the switch fluorescence ratio was 0.975 ± 0.034.

Work on AGGGGCTTGC yielded a switch fluorescence ratio of 0.956 ± 0.036.

CGTCATGGCT was tested, and the switch fluorescence ratio was 0.957 ± 0.041.

In the case of TTAATTGGTT, the switch fluorescence ratio is reported as 0.997 ± 0.031.

CGGTGTGGCT gave a switch fluorescence ratio of 0.97 ± 0.016.

TGTTGCATCG was tested, and the switch fluorescence ratio was 1 ± 0.019.

TACAGACGAT gave a switch fluorescence ratio of 1.3 ± 0.068.

Sequence GAGGGATTTT has a switch fluorescence ratio of 1.02 ± 0.017.

Work on AGCGTTTTTT yielded a switch fluorescence ratio of 0.998 ± 0.026.

GCCGGGACGC showed a switch fluorescence ratio of 1.05 ± 0.049.

TAATATATTT gave a switch fluorescence ratio of 1.01 ± 0.028.

TGCCGACGGG showed a switch fluorescence ratio of 1.01 ± 0.019.

TAGGGTTCGC gave a switch fluorescence ratio of 1.06 ± 0.082.

In the case of CTCGTACTTA, the switch fluorescence ratio is reported as 1 ± 0.019.

With TAGTTTTGAT the switch fluorescence ratio was 0.963 ± 0.029.

For GAGTTTTTTT, the switch fluorescence ratio was 0.987 ± 0.033.

TTCTTGGGAT gave a switch fluorescence ratio of 1 ± 0.019.

For ATCAGTGGTC, the switch fluorescence ratio was 0.936 ± 0.021.

With TGTTTGTGGT the switch fluorescence ratio was 0.987 ± 0.023.

GCTAGTTTCG was tested, and the switch fluorescence ratio was 1.03 ± 0.019.

With TATGCCTTTG the switch fluorescence ratio was 0.987 ± 0.033.

For AGGTTGGGT, the switch fluorescence ratio was 0.973 ± 0.025.

TAGTTTTATA was tested, and the switch fluorescence ratio was 1.016 ± 0.009.

For TGGGAGGGCT, the switch fluorescence ratio was 1.05 ± 0.093.

Sequence TTTTGCCTTA has a switch fluorescence ratio of 1.007 ± 0.0063.

TAAATCGGCG gave a switch fluorescence ratio of 0.989 ± 0.023.

In the case of GCTCTAGTGG, the switch fluorescence ratio is reported as 1.01 ± 0.022.

AGAAATTGGG was tested, and the switch fluorescence ratio was 0.992 ± 0.028.

Sequence CATTTATAAT has a switch fluorescence ratio of 1.03 ± 0.02.

TTTTGGCGGC gave a switch fluorescence ratio of 0.9504 ± 0.0056.

Work on TGGGGTTTGC yielded a switch fluorescence ratio of 0.991 ± 0.032.

For GATGGGTTCT, the switch fluorescence ratio was 0.9926 ± 0.0044.

AGGTAGCATG showed a switch fluorescence ratio of 1.01 ± 0.066.

ATCTGGTGCT gave a switch fluorescence ratio of 1.052 ± 0.0059.

In the case of GAACCTCGTG, the switch fluorescence ratio is reported as 1.03 ± 0.035.

For CGGGATTTAG, the switch fluorescence ratio was 1 ± 0.014.

CCTATGGGGG was tested, and the switch fluorescence ratio was 1.49 ± 0.66.

In the case of AGGTGTGTGC, the switch fluorescence ratio is reported as 0.97 ± 0.014.

For AGCGGGAGAT, the switch fluorescence ratio was 1.01 ± 0.061.

Sequence GGATGTGGGT has a switch fluorescence ratio of 1.011 ± 0.0037.

GATTCAGGAA was tested, and the switch fluorescence ratio was 1 ± 0.047.

TAGTAAGTCA gave a switch fluorescence ratio of 0.976 ± 0.023.

Work on ATTGAGCGGG yielded a switch fluorescence ratio of 1 ± 0.034.

TATACTGCGC gave a switch fluorescence ratio of 1.065 ± 0.0087.

TCGTAGCTGT was tested, and the switch fluorescence ratio was 1.18 ± 0.052.

ACACTCATTG was tested, and the switch fluorescence ratio was 1.06 ± 0.074.

Work on TTGGAGGGGG yielded a switch fluorescence ratio of 1.01 ± 0.039.

CGGTGCTGGG was tested, and the switch fluorescence ratio was 0.999 ± 0.04.

CTGTGTTTGG was tested, and the switch fluorescence ratio was 0.997 ± 0.038.

In the case of GTTTGCAGGA, the switch fluorescence ratio is reported as 0.995 ± 0.027.

TGGAGAGGGA was tested, and the switch fluorescence ratio was 0.9805 ± 0.0078.

Sequence ATGGATGGGG has a switch fluorescence ratio of 0.998 ± 0.028.

Sequence AGAGGTATAC has a switch fluorescence ratio of 0.969 ± 0.011.

CCGTCTGTTG showed a switch fluorescence ratio of 1.03 ± 0.029.

GGAGGCGTTT showed a switch fluorescence ratio of 0.996 ± 0.04.

With GTGGGATTGA the switch fluorescence ratio was 0.9898 ± 0.0043.

With GATTGTTAGA the switch fluorescence ratio was 0.9891 ± 0.0081.

TATTAAACTC showed a switch fluorescence ratio of 1.02 ± 0.017.

Sequence TTTACAGCAT has a switch fluorescence ratio of 1.06 ± 0.14.

For AGGCAGTTCG, the switch fluorescence ratio was 0.996 ± 0.02.

With CGGGATGACA the switch fluorescence ratio was 0.979 ± 0.046.

GCACATGGCC gave a switch fluorescence ratio of 1.03 ± 0.02.

For AGTGAGGGGT, the switch fluorescence ratio was 0.97 ± 0.03.

Work on AAGGGCGGC yielded a switch fluorescence ratio of 1.03 ± 0.018.

With ACAGGCTCCG the switch fluorescence ratio was 1.05 ± 0.038.

For GTTGTTTTTG, the switch fluorescence ratio was 1.02 ± 0.028.

AAAGGGAAAT showed a switch fluorescence ratio of 0.975 ± 0.037.

With TTAGTTAAAG the switch fluorescence ratio was 1 ± 0.014.

CAGGTAGTCT was tested, and the switch fluorescence ratio was 0.997 ± 0.024.

For AGCCACTGGA, the switch fluorescence ratio was 1.06 ± 0.059.

TATGATGCAT showed a switch fluorescence ratio of 0.991 ± 0.028.

In the case of TCTTTGACAG, the switch fluorescence ratio is reported as 1.02 ± 0.015.

For AGCATAATAT, the switch fluorescence ratio was 1.05 ± 0.012.

For TGGGTCCTTG, the switch fluorescence ratio was 0.9894 ± 0.0014.

In the case of TGATATATTT, the switch fluorescence ratio is reported as 1.02 ± 0.046.

TTGGCTGTGC gave a switch fluorescence ratio of 1.02 ± 0.019.

TCCTGTTCTG showed a switch fluorescence ratio of 1.02 ± 0.041.

AGGGGGGAGT gave a switch fluorescence ratio of 1.02 ± 0.031.

With AAGCAGCCCT the switch fluorescence ratio was 1.02 ± 0.015.

GCGTTTCGGA was tested, and the switch fluorescence ratio was 1 ± 0.02.

GGCATACCGG was tested, and the switch fluorescence ratio was 0.936 ± 0.019.

ATCGATTTTT gave a switch fluorescence ratio of 1 ± 0.032.

Sequence GGCTTGAAGC has a switch fluorescence ratio of 0.986 ± 0.018.

Sequence AAGTGGGTTT has a switch fluorescence ratio of 1.02 ± 0.037.

With ACTCATATCG the switch fluorescence ratio was 0.987 ± 0.029.

ACGGGGAAGG gave a switch fluorescence ratio of 1.03 ± 0.035.

GGAGTATATC showed a switch fluorescence ratio of 1.08 ± 0.073.

Work on GGGTGATTAA yielded a switch fluorescence ratio of 0.994 ± 0.017.

In the case of GTGAGGTTTT, the switch fluorescence ratio is reported as 0.985 ± 0.021.

In the case of ACTTTGTTTT, the switch fluorescence ratio is reported as 1 ± 0.022.

CGGACCATTT showed a switch fluorescence ratio of 1.04 ± 0.024.

Work on AGGTTTGTTG yielded a switch fluorescence ratio of 0.998 ± 0.016.

AATTCTGGAA showed a switch fluorescence ratio of 0.982 ± 0.011.

TTGGGGTTTC showed a switch fluorescence ratio of 0.998 ± 0.033.

CGAGAAAGAG gave a switch fluorescence ratio of 0.983 ± 0.077.

Work on TGATGTTAAA yielded a switch fluorescence ratio of 0.998 ± 0.01.

AACGTAGGTA showed a switch fluorescence ratio of 1.038 ± 0.0051.

TGAGATAACA showed a switch fluorescence ratio of 0.9943 ± 0.0033.

Work on AACCGGCTTA yielded a switch fluorescence ratio of 0.999 ± 0.026.

CGAATTAAAC showed a switch fluorescence ratio of 0.99 ± 0.029.

With TTTTCTCTCA the switch fluorescence ratio was 1.01 ± 0.02.

AGGGTTAGTG gave a switch fluorescence ratio of 0.979 ± 0.012.

GGCGCGAGAG gave a switch fluorescence ratio of 1.032 ± 0.0092.

With CGACGAGGCT the switch fluorescence ratio was 1.21 ± 0.024.

AGGGGCATAG showed a switch fluorescence ratio of 1.007 ± 0.003.

Work on TTACTAGTAT yielded a switch fluorescence ratio of 1 ± 0.025.

Sequence TATATGATGC has a switch fluorescence ratio of 0.984 ± 0.029.

GCGTTAAGTA gave a switch fluorescence ratio of 1.005 ± 0.0085.

GTATTAGTAA gave a switch fluorescence ratio of 1.006 ± 0.0038.

Work on GGGAAAACTA yielded a switch fluorescence ratio of 1 ± 0.028.

ATATACTATG gave a switch fluorescence ratio of 1.05 ± 0.026.

Sequence TCCCCTGGTT has a switch fluorescence ratio of 1.64 ± 0.14.

With AGTGAATCTG the switch fluorescence ratio was 0.992 ± 0.085.

In the case of TTTGTATTGT, the switch fluorescence ratio is reported as 1.019 ± 0.0089.

GTGTCTGGGG showed a switch fluorescence ratio of 0.9858 ± 0.0076.

In the case of CGGCGGGTTT, the switch fluorescence ratio is reported as 1.02 ± 0.049.

For ATATGGGCTT, the switch fluorescence ratio was 0.986 ± 0.014.

For TAAGAGGGGT, the switch fluorescence ratio was 1.03 ± 0.07.

AAACCGGGGG showed a switch fluorescence ratio of 1.1 ± 0.085.

TGAGGAGGG showed a switch fluorescence ratio of 0.97516 ± 0.00046.

GGTGTTAGG gave a switch fluorescence ratio of 1 ± 0.016.
